In article PMC2821155:
“And” between values parts separate entries of the source, which are not always exact repeats. Identical values can stand only once. Like-named read-outs stand apart in the source and are kept apart here. Blank lines part the entries; values can stand above or below the molecule they belong to.

What was measured:
Assay in all cases: native gel or EMSA
[1] = molecular target: GluA1 (UniProt P19490)
[2] = molecular target: GluA1 Lurcher mutant (A636T) (UniProt P19490)
[3] = molecular target: GluA1 Lurcher mutant (A636T) (UniProt P19490); remark: listed apart in the source
[4] = molecular target: GluA1ΔNTD Lurcher mutant (A636T)
[5] = molecular target: HA-GluA1 (UniProt P19490)
[6] = molecular target: HA-GluA1ΔNTD
[7] = molecular target: HA-GluA1ΔNTD-GFP×3
[8] = molecular target: neuronal AMPA receptor complex detected using the anti-GluA2/3 antibody (mouse (endogenous in cerebellar granule cells)) (UniProt P23819)
UniProt P23819, sequence (P23819 25-883, one chain of several): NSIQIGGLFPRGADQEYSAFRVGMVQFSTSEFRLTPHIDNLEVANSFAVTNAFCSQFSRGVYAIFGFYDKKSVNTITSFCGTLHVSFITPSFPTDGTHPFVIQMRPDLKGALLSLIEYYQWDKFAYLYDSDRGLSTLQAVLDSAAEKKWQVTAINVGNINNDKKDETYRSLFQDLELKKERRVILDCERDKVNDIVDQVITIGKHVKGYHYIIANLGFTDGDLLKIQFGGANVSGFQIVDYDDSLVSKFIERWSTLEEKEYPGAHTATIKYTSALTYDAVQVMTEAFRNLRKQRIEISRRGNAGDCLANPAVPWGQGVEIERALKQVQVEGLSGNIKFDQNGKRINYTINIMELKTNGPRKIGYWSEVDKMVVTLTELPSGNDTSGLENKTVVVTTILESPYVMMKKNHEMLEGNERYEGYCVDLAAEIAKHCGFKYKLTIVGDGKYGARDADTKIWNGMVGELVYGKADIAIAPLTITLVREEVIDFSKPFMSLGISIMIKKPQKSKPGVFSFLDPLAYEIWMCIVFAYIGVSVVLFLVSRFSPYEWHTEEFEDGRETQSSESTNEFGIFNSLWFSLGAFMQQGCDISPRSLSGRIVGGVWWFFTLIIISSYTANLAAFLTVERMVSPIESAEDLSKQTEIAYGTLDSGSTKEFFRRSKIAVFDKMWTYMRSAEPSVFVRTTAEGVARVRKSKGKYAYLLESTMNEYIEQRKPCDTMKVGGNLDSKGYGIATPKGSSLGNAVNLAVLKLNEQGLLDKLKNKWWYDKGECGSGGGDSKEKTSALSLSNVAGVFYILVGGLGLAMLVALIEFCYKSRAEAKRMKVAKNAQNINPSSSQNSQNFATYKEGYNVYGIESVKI

Molecule: GluA1 (from UniProt P19490 19-907) (receptor)
- stoichiometry N (subunits in the oligomer) [1]: 4 and 2

Molecule: GluA1 Lurcher mutant (A636T) (from UniProt P19490 19-907) (receptor)
- stoichiometry N (subunits in the oligomer) [2]: 4
- stoichiometry N (subunits in the oligomer) [3]: 2

Molecule: GluA1ΔNTD Lurcher mutant (A636T) (domain or fragment)
- stoichiometry N (subunits in the oligomer) [4]: 4

Molecule: HA-GluA1ΔNTD-GFP×3 (domain or fragment)
- stoichiometry N (subunits in the oligomer) [7]: 4

B1: stargazin (endogenous, cerebellar granule cells) (natural protein)
chain: MGLFDRGVQMLLTTVGAFAAFSLMTIAVGTDYWLYSRGVCKTKSVSENETSKKNEEVMTHSGLWRTCCLEGNFKGLCKQIDHFPEDADYEADTAEYFLRAVRASSIFPILSVILLFMGGLCIAASEFYKTRHNIILSAGIFFVSAGLSNIIGIIVYISANAGDPSKSDSKKNSYSYGWSFYFGALSFIIAEMVGVLAVHMFIDRHKQLRATARATDYLQASAITRIPSYRYRYQRRSRSSSRSTEPSHSRDASPVGVKGFNTLPSTEISMYTLSRDPLKAATTPTATYNSDRDNSFLQVHNCIQKDSKDSLHANTANRRTTPV
- stoichiometry N (stargazin per AMPA receptor tetramer) [8]: 1

Results, then the molecule that gave them:

- stoichiometry N (subunits in the oligomer) [5]: 4
Molecule: HA-GluA1 (from UniProt P19490 19-907) (receptor)

- stoichiometry N (subunits in the oligomer) [6]: 4
Molecule: HA-GluA1ΔNTD (domain or fragment)
